The source of these data is publication PMC3764193.

The target of the series is T1, recombinant (His)6-Bwc2 (Cryptococcus neoformans var. neoformans JEC21) (UniProt Q5EGQ1).
T1 sequence: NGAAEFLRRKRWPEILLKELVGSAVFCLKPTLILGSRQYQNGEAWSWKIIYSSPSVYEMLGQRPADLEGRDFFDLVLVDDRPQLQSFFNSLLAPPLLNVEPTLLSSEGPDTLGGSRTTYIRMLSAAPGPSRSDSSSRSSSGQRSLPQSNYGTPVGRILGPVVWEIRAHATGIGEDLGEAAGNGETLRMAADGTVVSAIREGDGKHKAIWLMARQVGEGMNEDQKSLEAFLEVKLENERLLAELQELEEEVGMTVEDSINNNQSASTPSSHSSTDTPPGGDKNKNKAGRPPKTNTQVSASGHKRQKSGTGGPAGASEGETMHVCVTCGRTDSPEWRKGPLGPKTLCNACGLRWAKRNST
Nature of the series: EMSA. The conditions noted are these: 1X EMSA buffer (from 5X: 20% w/v glycerol, 5 mM MgCl2, 250 mM NaCl, 2.5 mM EDTA pH 8, 10 mM DTT, +/-12 uM ZnSO4) + 1X phosphate buffer, 20 ul; 20 min …. A general note: A gel shift assay detects complexes by their altered migration in electrophoresis.

With “GTAGTCACCAGTCATTCAGTTACTCTGTTATGACGTGACGTCGTTACTCTCGATCTTCATCTCGATCTCCACCTTGCAAGCTTTTCAGGCTTTTTACTCATCGTTCACTATATAATACGATACCACACTTGACATTTCTTCGGTATGTATAAAACGCAGTCGCGAGTACTTCCTTCTGCTTTTGCAACAAACACGTCTGCATTTGTTGCCAAGTATTTATATCAGCATTAAGTACATGAGGTTC (double strand) [P1 (UVE1 promoter)]”, the binding entry was “binds”.
